Laboratory results reported in article PMC12450071 (Cell reports, 2025).

Biological target: JUNV GP1 (receptor-binding domain), subunit within the GPC on PV membranes (Junin mammarenavirus, strain MC2 …, UniProt P26313)
Assay: cryo-EM structure
Details: one partner purified

Sequence of JUNV GP1 (receptor-binding domain), subunit within the GPC on PV membranes (P26313 whole entry, looked up, the tested form may be a part): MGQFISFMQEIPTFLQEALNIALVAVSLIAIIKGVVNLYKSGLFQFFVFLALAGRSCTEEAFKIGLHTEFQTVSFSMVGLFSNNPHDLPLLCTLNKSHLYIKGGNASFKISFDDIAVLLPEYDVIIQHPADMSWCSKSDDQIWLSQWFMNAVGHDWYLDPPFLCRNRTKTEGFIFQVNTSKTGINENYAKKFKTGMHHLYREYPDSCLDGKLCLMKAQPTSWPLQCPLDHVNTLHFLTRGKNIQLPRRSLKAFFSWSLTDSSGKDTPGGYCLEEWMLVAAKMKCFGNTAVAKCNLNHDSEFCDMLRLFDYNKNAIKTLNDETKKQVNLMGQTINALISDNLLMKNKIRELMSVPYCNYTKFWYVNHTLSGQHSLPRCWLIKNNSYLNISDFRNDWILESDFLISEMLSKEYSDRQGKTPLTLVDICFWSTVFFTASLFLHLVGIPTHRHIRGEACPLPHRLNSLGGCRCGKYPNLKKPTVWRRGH

Row | Binder | binding result
1 | GB03-BE08 (J199) Fab (Fab, V domains shown, source: bought: BEI Resources (J199), ficin digested, dialyzed into TBS pH 8) VH: VALVESGGGLVQPGGSLKLSCASGASFSNAGMSWVRQTPDRRLELVAAINRDGDITYHPDSVKGRFTISRDNAKNTLYLQMSSLKSEDTAMYYCAREDYYGLYFYVMDYWGQGTSVTVA VL: QIVLTQSPAIMSASPGEKVTITCSASSIVSYMHWFQQKPGTSPKLWIYGTSNLASGVPARFSGSGSGTSYSLTISRMEAEDAATYYCQQRNSYPPTFGGGTKLEIK | binds
2 | GFP-fused Fab of the neutralizing antibody CR1-28 (Fab, V domains shown, also called CR1–28Fab; GFP-fused CR1–28Fab; source: HEK293T, transfected, purified from culture media (Ni-NTA)) VH: QVQLVESGGGVVQPGRSLRLSCAASGFTFSSSAMHWVRQAPGKGLEWVAVIWSDGSNENYADSVKGRFTISRDNSKNTLYLQMSSLRAEDTAVYYCATDKTYVSGYTSTWYYFNYWGQGTLVTVSG VL: DIQMTQSPSTLSASVGDRVTITCRASQSIDNWLAWYQQKPGKAPKLLIYTASRLESGVPSRFSGSGSGTEFTLTISSLQPDDFATYYCQHRTFGQGTKVEIK | binds
